The target of experiment [1] is T1, human CD47 expressed on cells (CD47 expressing CHO cells, Jurkat, HL60, DLD1, Raji) (human, UniProt Q08722 19-292).
T1 construct: also called CHO-CD47; IAP
Nature of the experiment: flow cytometry on DLD1 cells, IgG, frequency.

Experiment [2] has as its target T1, human CD47 expressed on cells (CD47 …). In words: IC50 (nM) MFI as grade, blocking biotinylated SIRPa-Fc binding to DLD1 cells; legend +: >20 nM.
The target is the same in experiment [3]. In words: IC50 (nM) Frequency as grade, blocking biotinylated SIRPa-Fc binding to DLD1 cells; legend +++: <1 nM.
Experiment [4] shares this target. In words: EC50 (nM) as grade, flow cytometry, Fab on HL60 cells; legend +++: <1 nM.
Experiment [5] has the same target. In words: EC50 (nM) as grade, flow cytometry, Fab on DLD1 cells; legend ++: >5 nM and <60 nM.
The target in experiment [6] is T2, biotin labelled polyhistidine tagged CD47 protein (Novoprotein, Cat#321) (human, UniProt Q08722 19-139, biotin labelled (site not stated)).
T2 construct: Bought protein; also called biotinylated CD47; biotinylated human CD47 protein; not shown: polyhistidine tag
In words: IC50 (nM) as grade, Fab blocking biotinylated CD47 binding to SIRPα-CHO cells; legend ++: >10 nM and <65 nM.

Experiment [7] addresses T3, CD47 protein (construct not stated; SPR antigen, CD47 coated ELISA plates) (Homo sapiens (Human), UniProt Q08722 19-139, limits assumed).
T3 construct: also called the antigen
Nature of the experiment: SPR (Biacore T100), affinity (nM) as grade; legend +: >10 nM and <40 nM.

For experiment [8], the target named is T1, human CD47 expressed on cells (CD47 …). In words: EC50 (nM) as grade, binding on Jurkat cells; legend +++: >0.05 nM and <1 nM.
The target is the same in experiment [9]. Nature of the experiment: EC50 (nM) as grade, binding on CHO-CD47 cells; legend +++: >0.05 nM and <1 nM.
A further experiment addresses T4, CHO/mCD47-GFP (mouse, UniProt Q61735).
T4 construct: on the cell surface; also called mouse CD47 expressed on CHO cells; CHO cell expressing mouse CD47
T4 sequence (receptor, looked up): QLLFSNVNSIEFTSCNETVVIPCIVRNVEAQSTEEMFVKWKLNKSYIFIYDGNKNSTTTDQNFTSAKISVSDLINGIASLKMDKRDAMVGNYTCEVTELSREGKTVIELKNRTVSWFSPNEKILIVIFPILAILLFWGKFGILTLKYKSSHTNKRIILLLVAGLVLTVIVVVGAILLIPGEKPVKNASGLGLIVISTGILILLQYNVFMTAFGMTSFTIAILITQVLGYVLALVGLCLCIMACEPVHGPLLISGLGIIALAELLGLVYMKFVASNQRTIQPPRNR
In words: flow cytometry on CHO cells expressing mouse CD47-GFP, binding percentage.

Experiment [10] has as its target T5, human CD47-Fc protein (Novoprotein, Cat#CG18) (human, UniProt Q08722 19-139).
T5 construct: Bought protein; also called CD47-hFc; hCD47-hFc fusion protein; not shown: human IgG Fc of the bought fusion protein
In words: IC50 (nM) as grade, neutralizing ELISA, CD47-hFc on SIRPα coated plate; legend ++++: <8 nM.

Experiment [11] has as its target T1, human CD47 expressed on cells (CD47 …). In words: flow cytometry on human red blood cells, donor 2, MFI; EC50 (nM) table beside the legend.
Experiment [12] addresses T5, human CD47-Fc protein (Novoprotein, …). Nature of the experiment: IC50 (nM) as grade, blocking of soluble CD47 binding to SIRPα-expressing CHO cells; legend ++: >1 nM and <10 nM.
In experiment [13] the target is T1, human CD47 expressed on cells (CD47 …). In words: flow cytometry on human platelets, donor 1, MFI.
Experiment [14] has the same target. Nature of the experiment: flow cytometry on human platelets, donor 2, MFI.
For experiment [15] the target is unchanged. In words: flow cytometry on human red blood cells, donor 1, MFI.
Experiment [16] has the same target. In words: flow cytometry on human red blood cells, donor 2, MFI.
The target is the same in experiment [17]. In words: flow cytometry blocking assay on Raji cells, SIRPα is the blocked ligand, MFI.
The target is the same in experiment [18]. In words: IC50 as grade, SIRPα blocking on Raji cells (second part of the table); legend ++: >1 nM and <20 nM.
The target is the same in experiment [19]. Nature of the experiment: flow cytometry on human platelets, MFI.
Experiment [20] has the same target. In words: flow cytometry on human red blood cells, MFI.
The target of the next experiment is T6, CD47 on monkey RBC (Macaca fascicularis, UniProt A0A2K5X523).
T6 construct: native, on red blood cells; also called cynomolgus monkey red blood cells expressing CD47
Nature of the experiment: flow cytometry on cynomolgus monkey red blood cells expressing CD47, MFI.

For experiment [21], the target named is T1, human CD47 expressed on cells (CD47 …). Nature of the experiment: flow cytometry blocking assay on Raji cells, SIRPα is the blocked ligand, MFI. This is another data set of the same source.
In experiment [22] the target is T2, biotin labelled polyhistidine tagged …. In words: IC50 (nM) as grade, Fab blocking biotinylated CD47 binding to SIRPα-CHO cells; legend +: >65 nM.

This note sets out measurements from US20200247886A1 (ZLIP, published 2020).

Where a chain is given by its changes, count along the chain named. Where two headings read alike, the source gives them in different places. Where only a bound is given, the exact number is not on record here.

B1: ABU40 (IgG, chimeric version of the Fab) (antibody, V domains shown)
VH: EVQLQQPGTELVKPGASVKLSCKASGYSFTTYWMHWVKQRPGQGLEWIGNINPSSGDSHYNEKFKSKATLTVDKSSSTAYMQLNSLTSEDSAVYYCARDYYGAYWGHGTLVTVSA
VL: DIQMTQSPASLSASVGETVTITCRASENIYSYLAWYQQKQGKSPQLLVYNAKTLAEGVPSRFSGSGSGTQFSLKINSLQPEDFGSYYCQHHYGTPLTFGAGTKLELK
Consider B1, for which the “EC50 (read off the curve)” value in experiment [1] was approximately 7 nM. Moreover, the IC50 in experiment [2] is more than 20 nM; in [3], less than 1 nM.

B2: ABU8 (Fab) (Fab, V domains shown)
VH: EVQLQQSGTELVKPGASVKLSCKASGYTFISYWMHWVKQRPGQGLEWIGNINPSSGNTNYNEKFKTKATLTVDKSSSTAYMQLSSLTSEDSAVYYCVRDYYGNYWGQGTTVTVSS
VL: B1 VL with N76K, A100G
Turning to B2, the figures for the EC50 in experiment [4] and in [5] were less than 1 nM and 5 to 60 nM, respectively. Further, in [6], the IC50 was in the range of 10 to 65 nM.

B3: ABU5 (antibody, V domains shown)
VH: QVQLQQPGAELVKPGASVKMSCKASGYTFTNYWIAWVKRRPGQGLEWIGDFYPGNTSTNYNEKFKTKATLTIDTSSSTAYMQLSSLTSEDSAVYYCARRGRGGSSYWGQGTTLTVSS
VL: DVLMTQTPLSLPVSLGEQASISCRSSQSIVHSNGNTYLEWYLQKPGQSPKLLIYRVANRFSGVPDRFSGSGSGTDFTLKISRVEAEDLGVYYCFQGSHVPWTFGGGTKLEIK
notes: Murine hybridoma monoclonal antibody; also called ABUS [sic]
Regarding B3, the “Affinity by SPR” value in experiment [7] was in the range of 10 to 40 nM. The EC50 in [8] was 0.05 to 1 nM; in experiment [9] it was 0.05 to 1 nM; in [11], 0.86 nM. The binding result with CHO/mCD47-GFP is reported as “no binding (tested: about 0.4 ug/ml)”. Further, the results for the IC50 in [10] and in experiment [12] were less than 8 nM and 1 to 10 nM, respectively.

B4: H-ABU 10 (antibody, V domains shown)
VL: DIVMTQSPDSLAVSLGERATINCKSSQSLVSSSQKNYLAWYQQKPGQPPKLLIYWASVRDSGVPDRFSGSGSGTDFTLTISSLQAEDVAVYYCQQYYSYPLTFGQGTKVEIK
VH: QVQLVQSGAEVKKPGASVKVSCKASGYTFTDNYINWVRQAPGQRLEWMGWIYLGSGNTKYNEKFKGRVTITRDTSASTAYMELSSLRSEDTAVYYCARREERGFAPWGQGTLVTVSS
B4: the “EC50 (read off the curve)” value was approximately 0.6 nM in experiment [13], approximately 0.6 nM in experiment [14], approximately 3 nM in experiment [15] and approximately 3 nM in [16]. Also, the “IC50 (read off the curve)” value in experiment [17] is approximately 1 nM. The molecule also had an IC50 in experiment [18] of 1 to 20 nM.

B5: H-ABU 9 (antibody, V domains shown)
VH: B4 VH with N32L, P106Y
VL: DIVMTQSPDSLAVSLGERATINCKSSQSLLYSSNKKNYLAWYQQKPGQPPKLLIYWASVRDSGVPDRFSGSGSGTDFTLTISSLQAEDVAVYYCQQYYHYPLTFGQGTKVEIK
For B5, the “EC50 (read off the curve)” value in experiment [13] is approximately 1 nM. Besides, in experiment [17], the “IC50 (read off the curve)” value is approximately 8 nM. In experiment [18], this molecule registered an IC50 of 1 to 20 nM.

B6: H-ABU41-IgG4-P (antibody)
light chain: DVQITQSPSSLSASVGDRVTITCRASKNIGKYLAWFQQKPGKTNKLLIYSGSTLQSGIPSRFSGSGSGTDFTLTISSLQPEDFATYYCQQHNEYPYTFGGGTKVEIK
heavy chain: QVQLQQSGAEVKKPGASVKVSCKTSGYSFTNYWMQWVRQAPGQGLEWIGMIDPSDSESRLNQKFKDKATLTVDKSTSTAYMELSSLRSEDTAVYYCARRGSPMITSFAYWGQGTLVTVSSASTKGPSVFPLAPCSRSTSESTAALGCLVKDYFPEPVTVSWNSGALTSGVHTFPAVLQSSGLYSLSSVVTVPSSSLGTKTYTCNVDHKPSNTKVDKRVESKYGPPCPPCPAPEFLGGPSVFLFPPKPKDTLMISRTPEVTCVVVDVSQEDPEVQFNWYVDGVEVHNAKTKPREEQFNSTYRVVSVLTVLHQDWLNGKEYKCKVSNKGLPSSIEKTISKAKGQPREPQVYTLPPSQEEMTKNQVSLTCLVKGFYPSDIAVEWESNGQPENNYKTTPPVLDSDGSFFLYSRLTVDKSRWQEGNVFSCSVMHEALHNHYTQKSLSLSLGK
With B6, the “EC50 (read off the curve)” value was approximately 2 nM in experiment [19], approximately 4 nM in experiment [20] and approximately 0.1 µg/mL in the experiment with CD47 on monkey RBC. Also, the “IC50 (read off the curve)” value in experiment [21] was approximately 5 nM.

B7: H-ABU41-IgG4-PE (antibody)
light chain: B6 light chain
heavy chain: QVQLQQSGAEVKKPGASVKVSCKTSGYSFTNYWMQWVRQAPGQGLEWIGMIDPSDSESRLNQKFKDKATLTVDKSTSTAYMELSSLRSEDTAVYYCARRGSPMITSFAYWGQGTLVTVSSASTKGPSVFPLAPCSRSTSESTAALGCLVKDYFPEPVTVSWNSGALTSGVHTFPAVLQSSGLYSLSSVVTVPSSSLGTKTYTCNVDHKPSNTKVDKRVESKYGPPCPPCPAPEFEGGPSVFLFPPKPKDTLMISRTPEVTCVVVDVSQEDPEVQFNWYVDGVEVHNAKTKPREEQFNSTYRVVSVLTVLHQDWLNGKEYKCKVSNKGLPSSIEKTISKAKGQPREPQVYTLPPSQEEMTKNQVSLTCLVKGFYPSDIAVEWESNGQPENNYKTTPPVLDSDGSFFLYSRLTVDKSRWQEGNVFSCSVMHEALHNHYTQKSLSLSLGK
B7: the “EC50 (read off the curve)” value in experiment [19] is approximately 2 nM; in experiment [20], approximately 4 nM; with CD47 on monkey RBC, approximately 0.1 µg/mL. Further, the “IC50 (read off the curve)” value in experiment [21] was approximately 3 nM.

B8: ABU24 (IgG, chimeric version of the Fab) (antibody, V domains shown)
VH: EVQLQQPGTELVKPGASVKLSCKASGYTFTSYWMHWVKQRPGQGLEWIGNVVPNNDGTNYNEKFRNKATLTVDKSSSTAYMQLSSLTSEDSAVYYCAVTYFAYWGQGTLVTVSA
VL: DAVVTQESALTTSPGETVTLTCRSSTGAVSTSNYANWVQEKPDHLFTGLIGGTNNRAPGVPARFSGSLIGDKAALTITGAQTEDEAIYFCALWYSNHWVFGGGTKLTVL
In the case of B8, the concentration giving a half-maximal response (EC50 (read off the curve)) in [1] is approximately 10 nM. The IC50 was more than 20 nM in experiment [2] and less than 1 nM in [3].

B9: ABU24 (Fab) (Fab, V domains shown)
VH: B8 VH
VL: B8 VL
notes: Phage-derived Fab: murine VL and VH fused to human CL and CH1
With B9, the EC50 in experiment [4] was less than 1 nM; in experiment [5], 5 to 60 nM. Besides, the IC50 in experiment [22] is more than 65 nM.
